Article PMC8215294
Each block holds one molecule with its values, some of them ahead of it.

What was measured:
Q94AM1 = test: SEC; purified His-tagged TOPs treated 30 min at RT with DTTred, DTTox, GSH or GSSG, purified again and dialysed; XBridge BEH200A SEC column, 50 mM sodium phosphate, 150 mM NaCl, 0.02% NaN3, pH 7.0
TOP1^C548A, Q94AM1 = target: T1, TOP1^C548A, Q94AM1; test: size-exclusion chromatography (SEC), peak area quantification; details: chain shown with the change; treatment (Ctrl or GSSG) not stated for this panel; parent: est. 38; read off a plot
T1 chain: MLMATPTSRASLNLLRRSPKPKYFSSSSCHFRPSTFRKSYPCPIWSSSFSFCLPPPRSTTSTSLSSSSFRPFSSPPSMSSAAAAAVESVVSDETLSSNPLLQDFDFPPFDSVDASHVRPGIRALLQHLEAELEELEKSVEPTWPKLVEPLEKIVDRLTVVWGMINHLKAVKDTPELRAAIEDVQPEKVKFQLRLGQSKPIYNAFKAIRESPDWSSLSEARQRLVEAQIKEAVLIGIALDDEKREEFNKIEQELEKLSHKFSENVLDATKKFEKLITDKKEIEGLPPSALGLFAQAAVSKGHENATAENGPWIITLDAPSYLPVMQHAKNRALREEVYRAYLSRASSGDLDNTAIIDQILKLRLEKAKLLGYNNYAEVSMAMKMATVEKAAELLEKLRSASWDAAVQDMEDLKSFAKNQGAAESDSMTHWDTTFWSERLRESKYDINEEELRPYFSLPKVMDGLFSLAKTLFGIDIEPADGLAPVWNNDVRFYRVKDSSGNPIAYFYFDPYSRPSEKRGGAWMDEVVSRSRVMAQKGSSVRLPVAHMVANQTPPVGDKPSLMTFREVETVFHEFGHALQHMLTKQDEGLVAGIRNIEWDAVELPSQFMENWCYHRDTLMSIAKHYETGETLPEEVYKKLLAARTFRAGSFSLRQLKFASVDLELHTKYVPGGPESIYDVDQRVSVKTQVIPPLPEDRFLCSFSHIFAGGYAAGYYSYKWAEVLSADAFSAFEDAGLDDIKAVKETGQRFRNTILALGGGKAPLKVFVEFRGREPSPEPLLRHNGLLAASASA

TOP1^C29A, Q94AM1 = target: T2, TOP1^C29A, Q94AM1; test: as above; details: chain shown with the change; treatment (Ctrl or GSSG) not stated for this panel; parent: est. 38; read off a plot
T2 chain: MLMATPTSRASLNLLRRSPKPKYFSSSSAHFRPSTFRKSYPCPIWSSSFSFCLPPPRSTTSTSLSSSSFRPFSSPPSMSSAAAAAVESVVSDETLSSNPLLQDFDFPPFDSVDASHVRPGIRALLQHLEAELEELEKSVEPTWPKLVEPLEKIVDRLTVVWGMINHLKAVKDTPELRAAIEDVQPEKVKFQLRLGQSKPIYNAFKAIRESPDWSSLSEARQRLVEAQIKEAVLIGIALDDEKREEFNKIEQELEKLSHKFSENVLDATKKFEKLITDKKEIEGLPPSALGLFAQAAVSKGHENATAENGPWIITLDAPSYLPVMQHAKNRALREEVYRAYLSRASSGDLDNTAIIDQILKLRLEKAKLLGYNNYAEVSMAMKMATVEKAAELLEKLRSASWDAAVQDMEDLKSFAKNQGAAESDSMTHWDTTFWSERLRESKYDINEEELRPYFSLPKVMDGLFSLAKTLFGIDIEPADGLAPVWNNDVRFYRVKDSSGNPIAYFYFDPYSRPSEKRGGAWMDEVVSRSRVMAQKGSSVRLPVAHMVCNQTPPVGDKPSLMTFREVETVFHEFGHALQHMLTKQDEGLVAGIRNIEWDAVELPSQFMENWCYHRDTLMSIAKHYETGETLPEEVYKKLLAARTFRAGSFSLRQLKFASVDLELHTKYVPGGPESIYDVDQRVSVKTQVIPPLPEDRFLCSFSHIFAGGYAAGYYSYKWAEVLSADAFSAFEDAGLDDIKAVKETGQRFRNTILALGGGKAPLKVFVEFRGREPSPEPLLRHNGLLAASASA

TOP1^C42A, Q94AM1 = target: T3, TOP1^C42A, Q94AM1; test: as above; details: chain shown with the change; treatment (Ctrl or GSSG) not stated for this panel; parent: est. 38; read off a plot
T3 chain: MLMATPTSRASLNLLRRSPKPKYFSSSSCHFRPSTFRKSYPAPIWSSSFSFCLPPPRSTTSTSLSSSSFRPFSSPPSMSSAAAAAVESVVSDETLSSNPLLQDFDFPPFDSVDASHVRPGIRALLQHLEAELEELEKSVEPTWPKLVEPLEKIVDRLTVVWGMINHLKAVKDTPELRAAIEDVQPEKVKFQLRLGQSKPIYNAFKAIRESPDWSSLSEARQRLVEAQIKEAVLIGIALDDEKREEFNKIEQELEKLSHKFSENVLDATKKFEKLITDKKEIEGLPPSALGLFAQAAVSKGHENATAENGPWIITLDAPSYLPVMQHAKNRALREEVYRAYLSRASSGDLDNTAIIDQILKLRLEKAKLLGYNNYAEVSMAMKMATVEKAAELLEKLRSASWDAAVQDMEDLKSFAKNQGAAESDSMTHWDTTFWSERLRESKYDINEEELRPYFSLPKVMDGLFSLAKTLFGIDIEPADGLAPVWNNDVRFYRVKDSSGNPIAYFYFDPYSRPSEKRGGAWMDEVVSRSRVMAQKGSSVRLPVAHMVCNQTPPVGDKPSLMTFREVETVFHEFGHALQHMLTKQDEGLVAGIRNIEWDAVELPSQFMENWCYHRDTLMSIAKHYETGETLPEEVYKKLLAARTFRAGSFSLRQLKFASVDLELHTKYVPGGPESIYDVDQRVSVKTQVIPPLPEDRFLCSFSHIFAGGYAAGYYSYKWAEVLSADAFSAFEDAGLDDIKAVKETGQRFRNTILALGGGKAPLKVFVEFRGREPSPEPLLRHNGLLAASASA

Molecule: Arabidopsis thaliana thimet oligopeptidase TOP1, full-length
- monomer/dimer ratio (SEC peak area) after DTTred or DTTox (Q94AM1): ∼7/1 under both conditions
- monomer/dimer ratio (SEC peak area) after GSH (Q94AM1): 3/1 and 2/1 post-GSH and -GSSG, respectively
- monomer/dimer ratio (SEC peak area) after GSSG (Q94AM1): 3/1 and 2/1 post-GSH and -GSSG, respectively

B2: Arabidopsis thaliana thimet oligopeptidase TOP1, full-length, Q94AM1 C29A (protein)
chain: MLMATPTSRASLNLLRRSPKPKYFSSSSAHFRPSTFRKSYPCPIWSSSFSFCLPPPRSTTSTSLSSSSFRPFSSPPSMSSAAAAAVESVVSDETLSSNPLLQDFDFPPFDSVDASHVRPGIRALLQHLEAELEELEKSVEPTWPKLVEPLEKIVDRLTVVWGMINHLKAVKDTPELRAAIEDVQPEKVKFQLRLGQSKPIYNAFKAIRESPDWSSLSEARQRLVEAQIKEAVLIGIALDDEKREEFNKIEQELEKLSHKFSENVLDATKKFEKLITDKKEIEGLPPSALGLFAQAAVSKGHENATAENGPWIITLDAPSYLPVMQHAKNRALREEVYRAYLSRASSGDLDNTAIIDQILKLRLEKAKLLGYNNYAEVSMAMKMATVEKAAELLEKLRSASWDAAVQDMEDLKSFAKNQGAAESDSMTHWDTTFWSERLRESKYDINEEELRPYFSLPKVMDGLFSLAKTLFGIDIEPADGLAPVWNNDVRFYRVKDSSGNPIAYFYFDPYSRPSEKRGGAWMDEVVSRSRVMAQKGSSVRLPVAHMVCNQTPPVGDKPSLMTFREVETVFHEFGHALQHMLTKQDEGLVAGIRNIEWDAVELPSQFMENWCYHRDTLMSIAKHYETGETLPEEVYKKLLAARTFRAGSFSLRQLKFASVDLELHTKYVPGGPESIYDVDQRVSVKTQVIPPLPEDRFLCSFSHIFAGGYAAGYYSYKWAEVLSADAFSAFEDAGLDDIKAVKETGQRFRNTILALGGGKAPLKVFVEFRGREPSPEPLLRHNGLLAASASA
- other: percent dimer (TOP1^C29A, Q94AM1): 2.5%

More lines, now with the values ahead:

- other: percent dimer (TOP1^C548A, Q94AM1): 18%
B1: Arabidopsis thaliana thimet oligopeptidase TOP1, full-length, Q94AM1 C548A (protein)
chain: MLMATPTSRASLNLLRRSPKPKYFSSSSCHFRPSTFRKSYPCPIWSSSFSFCLPPPRSTTSTSLSSSSFRPFSSPPSMSSAAAAAVESVVSDETLSSNPLLQDFDFPPFDSVDASHVRPGIRALLQHLEAELEELEKSVEPTWPKLVEPLEKIVDRLTVVWGMINHLKAVKDTPELRAAIEDVQPEKVKFQLRLGQSKPIYNAFKAIRESPDWSSLSEARQRLVEAQIKEAVLIGIALDDEKREEFNKIEQELEKLSHKFSENVLDATKKFEKLITDKKEIEGLPPSALGLFAQAAVSKGHENATAENGPWIITLDAPSYLPVMQHAKNRALREEVYRAYLSRASSGDLDNTAIIDQILKLRLEKAKLLGYNNYAEVSMAMKMATVEKAAELLEKLRSASWDAAVQDMEDLKSFAKNQGAAESDSMTHWDTTFWSERLRESKYDINEEELRPYFSLPKVMDGLFSLAKTLFGIDIEPADGLAPVWNNDVRFYRVKDSSGNPIAYFYFDPYSRPSEKRGGAWMDEVVSRSRVMAQKGSSVRLPVAHMVANQTPPVGDKPSLMTFREVETVFHEFGHALQHMLTKQDEGLVAGIRNIEWDAVELPSQFMENWCYHRDTLMSIAKHYETGETLPEEVYKKLLAARTFRAGSFSLRQLKFASVDLELHTKYVPGGPESIYDVDQRVSVKTQVIPPLPEDRFLCSFSHIFAGGYAAGYYSYKWAEVLSADAFSAFEDAGLDDIKAVKETGQRFRNTILALGGGKAPLKVFVEFRGREPSPEPLLRHNGLLAASASA

- other: percent dimer (TOP1^C42A, Q94AM1): 12%
B3: Arabidopsis thaliana thimet oligopeptidase TOP1, full-length, Q94AM1 C42A (protein)
chain: MLMATPTSRASLNLLRRSPKPKYFSSSSCHFRPSTFRKSYPAPIWSSSFSFCLPPPRSTTSTSLSSSSFRPFSSPPSMSSAAAAAVESVVSDETLSSNPLLQDFDFPPFDSVDASHVRPGIRALLQHLEAELEELEKSVEPTWPKLVEPLEKIVDRLTVVWGMINHLKAVKDTPELRAAIEDVQPEKVKFQLRLGQSKPIYNAFKAIRESPDWSSLSEARQRLVEAQIKEAVLIGIALDDEKREEFNKIEQELEKLSHKFSENVLDATKKFEKLITDKKEIEGLPPSALGLFAQAAVSKGHENATAENGPWIITLDAPSYLPVMQHAKNRALREEVYRAYLSRASSGDLDNTAIIDQILKLRLEKAKLLGYNNYAEVSMAMKMATVEKAAELLEKLRSASWDAAVQDMEDLKSFAKNQGAAESDSMTHWDTTFWSERLRESKYDINEEELRPYFSLPKVMDGLFSLAKTLFGIDIEPADGLAPVWNNDVRFYRVKDSSGNPIAYFYFDPYSRPSEKRGGAWMDEVVSRSRVMAQKGSSVRLPVAHMVCNQTPPVGDKPSLMTFREVETVFHEFGHALQHMLTKQDEGLVAGIRNIEWDAVELPSQFMENWCYHRDTLMSIAKHYETGETLPEEVYKKLLAARTFRAGSFSLRQLKFASVDLELHTKYVPGGPESIYDVDQRVSVKTQVIPPLPEDRFLCSFSHIFAGGYAAGYYSYKWAEVLSADAFSAFEDAGLDDIKAVKETGQRFRNTILALGGGKAPLKVFVEFRGREPSPEPLLRHNGLLAASASA
